Here are results for 12 molecules from patent publication US20250243279A1 (published 2025).

Changes are numbered by the printed parent chain.

One assay addresses T1, MICB (human, UniProt Q29980 23-383).
T1 chain: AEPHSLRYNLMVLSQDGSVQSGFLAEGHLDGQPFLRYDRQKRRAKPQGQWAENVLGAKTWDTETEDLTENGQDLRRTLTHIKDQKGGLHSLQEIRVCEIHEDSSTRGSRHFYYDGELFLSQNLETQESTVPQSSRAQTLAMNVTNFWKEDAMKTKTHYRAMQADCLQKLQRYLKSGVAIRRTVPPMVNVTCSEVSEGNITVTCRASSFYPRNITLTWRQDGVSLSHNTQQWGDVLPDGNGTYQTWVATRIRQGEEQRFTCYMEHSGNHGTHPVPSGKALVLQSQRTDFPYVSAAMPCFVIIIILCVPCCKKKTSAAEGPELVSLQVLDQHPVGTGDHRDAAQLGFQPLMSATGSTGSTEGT
Put plainly: Carterra LSA SPR.

The next assay concerns the target T2, MICA (human, UniProt Q29983 24-383).
T2 chain: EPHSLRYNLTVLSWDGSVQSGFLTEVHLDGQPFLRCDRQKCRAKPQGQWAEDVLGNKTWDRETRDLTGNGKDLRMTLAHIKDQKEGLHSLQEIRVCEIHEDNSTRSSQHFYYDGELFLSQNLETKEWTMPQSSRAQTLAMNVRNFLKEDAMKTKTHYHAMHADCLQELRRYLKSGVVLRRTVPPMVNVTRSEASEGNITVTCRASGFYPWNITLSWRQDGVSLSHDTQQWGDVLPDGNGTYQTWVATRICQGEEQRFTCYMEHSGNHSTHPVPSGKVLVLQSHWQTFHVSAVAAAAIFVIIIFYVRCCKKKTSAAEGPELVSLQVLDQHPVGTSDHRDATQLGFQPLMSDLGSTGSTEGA
Put plainly: Carterra LSA SPR.

For another assay, the target named is cynoMICA. Kind of assay: Carterra LSA SPR.
Another assay deals with 1H7. Kind of assay: Carterra LSA SPR.
The next assay has as its target 1D9. Put plainly: Carterra LSA SPR.
The next assay addresses 1C8. Kind of assay: Carterra LSA SPR.
Another assay deals with 1A2. Kind of assay: Carterra LSA SPR.
Another assay concerns the target 1B6. Put plainly: Carterra LSA SPR.
The target in another assay is 1D8. Put plainly: Carterra LSA SPR.
A further assay concerns the target 1B11-2. Kind of assay: Carterra LSA SPR.
In another assay the target is 1D7. Put plainly: Carterra LSA SPR.
The target of another assay is 1E1. Put plainly: Carterra LSA SPR.
The next assay deals with CD16 (UniProt P08637 17-208).
CD16, sequence (P08637 17-208): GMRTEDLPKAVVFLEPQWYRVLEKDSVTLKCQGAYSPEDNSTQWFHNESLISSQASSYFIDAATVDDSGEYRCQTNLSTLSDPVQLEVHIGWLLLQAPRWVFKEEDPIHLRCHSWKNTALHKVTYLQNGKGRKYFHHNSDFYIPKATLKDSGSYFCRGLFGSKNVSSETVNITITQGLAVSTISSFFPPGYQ

B1: D94837_1E11_1 [MICA/B]_H0_D94837_1E11_1 [MICA/B]_L0 (antibody, V domains shown)
VH: EIQLQQSGPELVKPGASVKVSCKASGYAFTSYNMYWVKQSHGKSLEWIGYIDPYNGGTIYNQKFKGKATLTVDKSSSTAYMLLNSLTSEDSAVYYCARVGDAYPFAYWGQGTLVTVSA
VL: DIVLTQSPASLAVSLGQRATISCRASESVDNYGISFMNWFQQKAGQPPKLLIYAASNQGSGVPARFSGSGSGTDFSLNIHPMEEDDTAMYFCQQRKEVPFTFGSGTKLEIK
Take B1: the Kd is 52.8 nM with MICB and 40.3 nM with MICA.

B2: 1E11-1 (antibody, V domains shown)
VH: B1 VH
VL: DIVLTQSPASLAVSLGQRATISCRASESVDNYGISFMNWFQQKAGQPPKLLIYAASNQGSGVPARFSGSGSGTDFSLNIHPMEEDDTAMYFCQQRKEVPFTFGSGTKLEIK
B2 registered a Kd with cynoMICA of 19.6 nM.

B3: D103388_1C7 [MICA/B]_H0_D103388_1C7 [MICA/B]_L0 (antibody, V domains shown)
VH: QVQLRQSGPGLGQPSQSLSITCTVFGFSLTNYGVHWVRQSPGKGLEWLGMIWNDGFTDFNAAFISRLSISKDNSKSQVFFKMNSLQPSDTAIYYCASPYFHYAMDYWGQGTSVTVSS
VL: QIVLTQSPAIMSASLGERVTMTCTASSSVSSSYLHWYQQKPGSSPKLWIYSTSNLASGVPARFSGSGSGTSYSLTISSMEAEDAATYYCHQYHRSPFTFGSGTKLEIK
With B3, the figures for the Kd in the assay with MICB and with MICA were 2.27 nM and 22.9 nM, respectively.

B4: 1C7 (antibody, V domains shown)
VH: B3 VH
VL: B3 VL
For B4, the Kd with cynoMICA is 23.8 nM.

B5: 2E12 (antibody, V domains shown)
VH: QVQLQQSGAELVRPGTSVKVSCKASGYAFTNYLIEWVKQRPGQGLEWIGGINPGSGSTNYNEKFKGKATLTADKSSSTAYMQLSTLTFDDSAVYFCARLGGNYVDYWGQGTTLTVSS
VL: DIQMTQSPASLSASVGETVTITCRASGNIHNYLAWYQQKQGKSPQLLVYNAKTLADGVPSRFSGSGSGTQYSLKINSLQPEDFGSYYCQHFWSTPRTFGGGTKLEIK
Regarding B5, the Kd turned out to be 4.68 nM with MICB and 16.7 nM with MICA.

B6: huMICB (ligand)
chain: T1 chain
Turning to B6, the Kd with 1H7 worked out at 254 nM; in the assay with 1D9 it was 0.453 nM; with 1C8 it was 7.72 nM; with 1A2, 0.181 nM; in the assay with 1B6, 1.05 nM; in the assay with 1D8, 4.5 nM. Also, the Kd with 1B11-2 is 1.11 nM; with 1D7, 1.47 nM; in the assay with 1E1, 2.23 nM.

B7: D99136_2C11 [MICA/B]_H0_D99136_2C11 [MICA/B]_L0 (antibody, V domains shown)
VH: DVQLQESGPGLVKPSQSLSLTCSVTGYSITSGYNWDWIRHSPGNKLEWMGYISYDGSTNYNPSLKNRISITRDTSKNQFFLKLNSVTTEDTATYYCASSYYRYFDYWGQGTTLTVSS
VL: DVQMTQTTSSLSASLGDRVTISCSASQGISNYLNWFQQKPDGTVKLLIYYTSSLHSGVPSRFSGSGSGTDYSLTISNLEPEDIATYYCQQYTKLPWTFGGGTELEIK
Consider B7, for which the Kd worked out at 2.59 nM with MICB and 17.8 nM in the assay with MICA.

B8: huMICA (ligand)
chain: T2 chain
For B8, the Kd was found to be 75 nM in the assay with 1H7; 12.8 nM with 1D9; 20.6 nM in the assay with 1C8; 2.13 nM with 1A2; 5.85 nM with 1B6; 46.7 nM in the assay with 1D8. The Kd stood at 2.83 nM in the assay with 1B11-2, 0.344 nM with 1D7 and 12.2 nM in the assay with 1E1.

B9: 2E5 (antibody, V domains shown)
VH: EVKLVESGGGLVQPGGSLKLSCATSGFTFSDYYMFWVRQTPEKRLEWVAYISEGGGSTYYPDTIKGRFTISRDNAKNTLYLQMSRLRSEDTAMYYCVRQRGAYNRYDDGRGFAYWGQGTLVTVSA
VL: DVLMTQTPLSLPVSLGDQASISCRSSQSIVHSNGNTYLEWYLQKPGQSPKLLIYKVSNRFSGVPDRLSGSGSGTDFTLKISRGEAEDLGVYYCFQGSHVPWTFGGGTKLEIK
As for B9, the Kd with MICB is 0.807 nM; in the assay with MICA, 0.599 nM.

B10: 2F7 (antibody, V domains shown)
VH: QVHLKQSGAELVRPGASVKLSCKASGYTFTDYYIDWMNQRPGQGLEWIARIYPGSGNSYYNEKFKGKATLTAEKSASTAHMQLSSLTSEDSAVYFCAREGPTGVAPHWYFDVWGTGTTVTVSS
VL: DIVMSQSPSSLSSYLGDRVTISCRASQDIGNYLNWYQQKPDGTVKLLIYSTSRLHSGVPSRFSGSGSGTDYSLTISNLEQEDVATYFCQQGNTLPWTFGGGTKLEIK
In the case of B10, the Kd in the assay with MICB was determined as 9.77 nM; with MICA it was 42.4 nM.

B11: XENP41023 (antibody)
heavy: EVQLLESGGGLVQPGGSLRLSCAVSGFSLSSYGVIWVRQAPGKGLEYVSWVSSGGSTNYASSVKGRFTISRDTSKNTVYLQMNSLRAEDTAVYFCARGATNSGTDIWGPGTLVTVSSASTKGPSVFPLAPSSKSTSGGTAALGCLVKDYFPEPVTVSWNSGALTSGVHTFPAVLQSSGLYSLSSVVTVPSSSLGTQTYICNVNHKPSDTKVDKKVEPKSCDKTHTCPPCPAPELLGGPDVFLFPPKPKDTLMISRTPEVTCVVVDVSHEDPEVKFNWYVDGVEVHNAKTKPREEEYNSTYRVVSVLTVLHQDWLNGKEYKCKVSNKALPAPIEKTISKAKGQPREPQVYTLPPSREEMTKNQVSLTCDVSGFYPSDIAVEWESDGQPENNYKTTPPVLDSDGSFFLYSKLTVDKSRWEQGDVFSCSVMHEALHNHYTQKSLSLSPGK
scFv-Fc: EVQLLESGGGLVQPGGSLRLSCAVSGFSLSSYGVIWVRQAPGKGLEYVSWVSSGGSTNYASSVKGRFTISRDTSKNTVYLQMNSLRAEDTAVYFCARGATNSGTDIWGPGTLVTVSSGKPGSGKPGSGKPGSGKPGSDIVMTQSPSSLSASVGDRVTITCRASQSINSWLSWYQQKPGKPPKLLIYGASNLASGVPSRFKGSGSGTDFTLTISSLQPEDFATYYCQNNYGIIAAGATFGGGTKVEIKEPKSSDKTHTCPPCPAPELLGGPDVFLFPPKPKDTLMISRTPEVTCVVVDVSHEDPEVKFNWYVDGVEVHNAKTKPREEQYNSTYRVVSVLTVLHQDWLNGKEYKCKVSNKALPAPIEKTISKAKGQPREPQVYTLPPSREQMTKNQVKLTCLVKGFYPSDIAVEWESNGQPENNYKTTPPVLDSDGSFFLYSKLTVDKSRWQQGNVFSCSVMHEALHNHYTQKSLSLSPGK
light: DIVMTQSPSSLSASVGDRVTITCRASQSINSWLSWYQQKPGKPPKLLIYGASNLASGVPSRFKGSGSGTDFTLTISSLQPEDFATYYCQNNYGIIAAGATFGGGTKVEIKRTVAAPSVFIFPPSDEQLKSGTASVVCLLNNFYPREAKVQWKVDNALQSGNSQESVTEQDSKDSTYSLSSTLTLSKADYEKHKVYACEVTHQGLSSPVTKSFNRGEC
As for B11, in the assay with CD16, the Kd stood at 102 nM.

B12: XENP41024 (antibody)
heavy: B11 heavy with D239S, I332E
scFv-Fc: B11 scFv-Fc with D271S, I364E
light: B11 light
B12 displayed a Kd with CD16 of 120 nM.

For orientation: Kd means the concentration at which binding is half-saturated. High values mean weaker binding, low ones tighter binding.
